Data from publication PMC4323944 (Journal of molecular biology, 2014).
Changes are numbered by the printed parent chain. Names and notes keep the numbering of the source. Values belong to the binder of their own block, whether it stands above or below them.

What was measured:
[1] = target: T1, T. maritima FliM middle domain (FliMM, residues 46-242) (Thermotoga maritima, UniProt Q9WZE6 46-242); assay: crystal structure
T1 sequence (looked up): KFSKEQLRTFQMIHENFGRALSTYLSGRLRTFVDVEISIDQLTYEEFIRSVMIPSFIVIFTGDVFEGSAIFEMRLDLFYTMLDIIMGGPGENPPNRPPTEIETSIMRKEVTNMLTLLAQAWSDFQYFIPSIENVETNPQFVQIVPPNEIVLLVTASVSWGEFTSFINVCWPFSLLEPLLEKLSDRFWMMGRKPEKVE

[2] = target: the molecule itself; assay: pulsed dipolar ESR spectroscopy
SEC-MALS = target: the molecule itself; assay: SEC-MALS

- binding result [1]: binds
B1: T. maritima FliG middle domain (FliGM, residues 117-195) (domain or fragment, Thermotoga maritima, UniProt Q9WY63 117-195, looked up)
chain: VQLVNFLQSEHPQTIAVVLSYLDPPVAAQILGALPEELQTEVLKRIALLERTSPEVVKEIERNLEKKISGFVSRTFSKV

B2: FliG Q129W 160-R1 (FliGMC Q129W K160C, MTSSL spin-labeled) (domain or fragment, Thermotoga maritima, UniProt Q9WY63 116-335, looked up)
chain: PVQLVNFLQSEHPWTIAVVLSYLDPPVAAQILGALPEELQTEVLCRIALLERTSPEVVKEIERNLEKKISGFVSRTFSKVGGIDTAAEIMNNLDRTTEKKIMDKLVQENPELADEIRRRMFVFEDILKLDDRSIQLVLREVDTRDLALALKGASDELKEKIFKNMSKRAAALLKDELEYMGPVRLKDVEEAQQKIINIIRRLEEAGEIVIARGGGEELIM
modifications: nitroxide side chain R1 (MTSSL on Cys 160)
- binding result [2]: binds

B3: FliG 160-R1 (FliGMC K160C, MTSSL spin-labeled) (domain or fragment, Thermotoga maritima, UniProt Q9WY63 116-335, looked up)
chain: B2 chain with W14Q
modifications: nitroxide side chain R1 (MTSSL on Cys 160)
- stoichiometry N (SEC-MALS): 2

B4: FliG 174-R1 (FliGMC K174C, MTSSL spin-labeled) (domain or fragment, Thermotoga maritima, UniProt Q9WY63 116-335, looked up)
chain: B2 chain with W14Q, C45K, K59C
modifications: nitroxide side chain R1 (MTSSL on Cys 174)
- binding result [2]: binds
